In PMC4786428, “Recombinational branch migration by the RadA/Sms paralog of RecA in Escherichia coli”:

T1: RadA (Sms) wild type (Escherichia coli, UniProt P24554 1-460)
T1 sequence: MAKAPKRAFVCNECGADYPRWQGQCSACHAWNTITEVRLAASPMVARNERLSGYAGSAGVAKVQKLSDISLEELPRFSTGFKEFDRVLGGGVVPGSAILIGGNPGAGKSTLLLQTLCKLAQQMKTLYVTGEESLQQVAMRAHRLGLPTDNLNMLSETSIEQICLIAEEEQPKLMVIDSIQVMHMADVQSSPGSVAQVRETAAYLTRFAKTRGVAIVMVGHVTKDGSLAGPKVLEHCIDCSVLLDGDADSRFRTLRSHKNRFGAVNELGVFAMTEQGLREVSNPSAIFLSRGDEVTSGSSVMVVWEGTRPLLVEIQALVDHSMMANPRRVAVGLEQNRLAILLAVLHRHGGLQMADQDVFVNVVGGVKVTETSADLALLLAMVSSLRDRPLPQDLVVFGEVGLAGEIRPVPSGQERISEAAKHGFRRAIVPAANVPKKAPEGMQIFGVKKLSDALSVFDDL

B1: poly(dA)33 (ssDNA)
DNA: AAAAAAAAAAAAAAAAAAAAAAAAAAAAAAAAA
B2: poly(dT)30 (ssDNA)
DNA: TTTTTTTTTTTTTTTTTTTTTTTTTTTTTT

Key:
RadA (Sms) wild type [1] = molecular target: T1, RadA (Sms) wild type; assay: competition; unlabeled competitor vs labeled poly(dT)30, 1 mM ADP; 50 mM Tris-HCl pH 7.5, 10 mM MgCl2, 0.1 mM EDTA, 75 mM NaCl, 5 mM DTT, 100 ug/ml BSA, 1 mM nucleotide, 100 fmol DNA, 37 C for 20-30 min; 6% TBE polyacrylamide gel at room temperature; details: protein: recombinant; tags: eXact tag cleaved; 2 extra N-terminal residues Thr-Ser remain; chain copies: 6
RadA (Sms) wild type [2] = molecular target: T1, RadA (Sms) wild type; assay: EMSA; 1 mM ADP (standard); apparent; Hill coefficient 1.5; 50 mM Tris-HCl pH 7.5, 10 mM MgCl2, 0.1 mM EDTA, 75 mM NaCl, 5 mM DTT, 100 ug/ml BSA, 1 mM nucleotide, 100 fmol DNA, 37 C for 20-30 min; 6% TBE polyacrylamide gel at room temperature; details: protein: recombinant; tags: eXact tag cleaved; 2 extra N-terminal residues Thr-Ser remain; chain copies: 6

Row | Binder | binding result (RadA (Sms) wild type [1]) | Kd (RadA (Sms) wild type [2]) [nM]
1 | B1 | no binding | 
2 | B2 |  | 110 ± 14
